For test [1], the target named is T1, HER2/neu extracellular domain (UniProt P04626 23-652, limits assumed).
T1 construct: extracellular domain; also called ErbB2
The test is described as follows: surface plasmon resonance (BIAcore), HER2/neu extracellular domain on the chip, ALM injected; concentrations not given. (In general: SPR reads the build-up and loss of mass on a sensor chip optically.)

The target in test [2] is T2, HER3 extracellular domain (UniProt P21860 20-643, limits assumed).
T2 construct: extracellular domain; also called ErbB3
The test is described as follows: surface plasmon resonance (BIAcore), HER3 extracellular domain on the chip, ALM injected; concentrations not given.

T2 sequence (P21860 20-643 limits assumed): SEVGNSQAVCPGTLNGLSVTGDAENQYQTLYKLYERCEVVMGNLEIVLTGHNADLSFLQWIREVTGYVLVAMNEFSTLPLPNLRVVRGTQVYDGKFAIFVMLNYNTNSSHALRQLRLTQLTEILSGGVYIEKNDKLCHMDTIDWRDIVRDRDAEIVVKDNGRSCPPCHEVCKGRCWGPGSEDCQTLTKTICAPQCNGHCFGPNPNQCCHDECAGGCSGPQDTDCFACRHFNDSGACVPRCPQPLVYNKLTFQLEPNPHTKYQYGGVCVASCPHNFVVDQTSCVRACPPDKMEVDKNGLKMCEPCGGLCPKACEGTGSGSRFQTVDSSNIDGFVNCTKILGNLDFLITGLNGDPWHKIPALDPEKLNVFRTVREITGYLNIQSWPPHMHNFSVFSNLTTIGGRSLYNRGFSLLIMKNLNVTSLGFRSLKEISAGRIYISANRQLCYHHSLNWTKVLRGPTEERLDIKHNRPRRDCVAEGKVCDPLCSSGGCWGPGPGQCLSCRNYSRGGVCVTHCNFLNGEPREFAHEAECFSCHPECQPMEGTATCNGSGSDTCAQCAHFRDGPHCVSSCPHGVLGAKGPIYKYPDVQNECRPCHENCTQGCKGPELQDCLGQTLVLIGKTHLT

B1: ALM (A5-ML3.9) bispecific scFv (bispecific antibody)
scFv: AMAQVQLVQSGGGLVKPGGSLRLSCAASGFSFNTYDMNWVRQAPGKGLEWVSSISSSSSYIYYADSVKGRFTISRDNAKNSLYLQMNSLRAEDTAVYYCARDGVATTPFDYWGQGTLVTVSSGGGGSGGGGSGGGGSQSVLTQPPSVSGAPGQRVTISCTGSSSNIGAGYDVHWYQQLPGTAPKLLIYGNSNRPSGVPDRFSGSKSGTSASLAITGLQAEDEADYYCQSYDSSLSALFGGGTKLTVLGNSGAGTSGSGASGEGSGSKLQVQLVQSGAEVKKPGESLKISCKGSGYSFTSYWIAWVRQMPGKGLEYMGLIYPGDSDTKYSPSFQGQVTISVDKSVSTAYLQWSSLKPSDSAVYFCARHDVGYCSSSNCAKWPEYFQHWGQGTLVTVSSGGGGSGGGGSGGGGSQSVLTQPPSVSAAPGQKVTISCSGSSSNIGNNYVSWYQQLPGTAPKLLIYDHTNRPAGVPDRFSGSKSGTSASLAISGFRSEDEADYYCASWDYTLSGWVFGGGTKLTVLGLEHHHHHH
notes: Expressed in E. coli TG1 from pUC/ALM and purified by IMAC and size exclusion; also called A5/Linker/ML3.9 bs-scFv; ALM proteins
For the molecule B1, the binding result in test [1] and in test [2] was “binds” each time.

Values taken from patent US20100196265A1 (University of California, published 2010).
